What follows are sequences tested on Escherichia coli TOP10 (assay: shrunken log2 fold change of peptide-encoding DNA abundance (4.5 h post-induction vs induction); higher = less antimicrobial activity (less host growth inhibition)). Conditions: time post-induction: 4.5 h; library: site-saturation at positions 5, 18, 19, 20.
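Also: peptides expressed intracellularly from a pBAD plasmid library in pooled LB shake-flask culture, induced with 0.3% L-arabinose, DNA abundance read by NGS, three biological replicates, DESeq2 with apeglm shrinkage.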

Row | Sequence | shrunken log2 fold change
1 | RRIRERPPRLPRPRPRPNMDPRP | -0.209
2 | RRIRERPPRLPRPRPRPNMMPRP | -0.612
3 | RRIRERPPRLPRPRPRPNNEPRP | -0.525
4 | RRIRERPPRLPRPRPRPNQCPRP | -0.00674
5 | RRIRERPPRLPRPRPRPNQGPRP | -0.348
6 | RRIRERPPRLPRPRPRPNRFPRP | 0.0105
7 | RRIRERPPRLPRPRPRPNSFPRP | -0.249
8 | RRIRERPPRLPRPRPRPNTDPRP | -0.554
9 | RRIRERPPRLPRPRPRPNWCPRP | -0.0117
10 | RRIRERPPRLPRPRPRPNWGPRP | 0.00892
11 | RRIRERPPRLPRPRPRPNWPPRP | 0.202
12 | RRIRERPPRLPRPRPRPNYIPRP | -0.672
13 | RRIRERPPRLPRPRPRPPEGPRP | 0.233
14 | RRIRERPPRLPRPRPRPPHHPRP | -0.123
15 | RRIRERPPRLPRPRPRPPKMPRP | -0.212
16 | RRIRERPPRLPRPRPRPPKRPRP | 0.259
17 | RRIRERPPRLPRPRPRPPKYPRP | -0.294
18 | RRIRERPPRLPRPRPRPPMKPRP | -0.418
19 | RRIRERPPRLPRPRPRPPMRPRP | 0.779
20 | RRIRERPPRLPRPRPRPPMVPRP | -0.45
21 | RRIRERPPRLPRPRPRPPNVPRP | 0.149
22 | RRIRERPPRLPRPRPRPPNWPRP | 0.368

Row | Sequence | shrunken log2 fold change
23 | RRIRERPPRLPRPRPRPPPRPRP | 0.837
24 | RRIRERPPRLPRPRPRPPRMPRP | 0.027
25 | RRIRERPPRLPRPRPRPPRRPRP | 0.408
26 | RRIRERPPRLPRPRPRPPSAPRP | 0.632
27 | RRIRERPPRLPRPRPRPPSFPRP | -0.126
28 | RRIRERPPRLPRPRPRPPSQPRP | -0.213
29 | RRIRERPPRLPRPRPRPPTQPRP | 0.159
30 | RRIRERPPRLPRPRPRPPTVPRP | 0.166
31 | RRIRERPPRLPRPRPRPPWGPRP | 0.285
32 | RRIRERPPRLPRPRPRPPYGPRP | -0.244
33 | RRIRERPPRLPRPRPRPQAKPRP | 0.162
34 | RRIRERPPRLPRPRPRPQARPRP | -0.0863
35 | RRIRERPPRLPRPRPRPQDPPRP | -0.232
36 | RRIRERPPRLPRPRPRPQGWPRP | 0.114
37 | RRIRERPPRLPRPRPRPQHDPRP | -0.265
38 | RRIRERPPRLPRPRPRPQHEPRP | 0.199
39 | RRIRERPPRLPRPRPRPQHRPRP | 0.152
40 | RRIRERPPRLPRPRPRPQIWPRP | 0.0182
41 | RRIRERPPRLPRPRPRPQKFPRP | -0.259
42 | RRIRERPPRLPRPRPRPQKHPRP | -0.608
43 | RRIRERPPRLPRPRPRPQKSPRP | -0.202
44 | RRIRERPPRLPRPRPRPQLCPRP | 0.0651

Row | Sequence | shrunken log2 fold change
45 | RRIRERPPRLPRPRPRPQLNPRP | -0.423
46 | RRIRERPPRLPRPRPRPQMEPRP | 0.00522
47 | RRIRERPPRLPRPRPRPQMKPRP | -0.568
48 | RRIRERPPRLPRPRPRPQMPPRP | -0.292
49 | RRIRERPPRLPRPRPRPQNRPRP | -0.281
50 | RRIRERPPRLPRPRPRPQNVPRP | 0.16
51 | RRIRERPPRLPRPRPRPQQKPRP | -0.157
52 | RRIRERPPRLPRPRPRPQQPPRP | 0.166
53 | RRIRERPPRLPRPRPRPQQQPRP | 0.00378
54 | RRIRERPPRLPRPRPRPQQYPRP | -0.318
55 | RRIRERPPRLPRPRPRPQRLPRP | 0.202
56 | RRIRERPPRLPRPRPRPQRMPRP | -0.411
57 | RRIRERPPRLPRPRPRPQRNPRP | -0.214
58 | RRIRERPPRLPRPRPRPQSGPRP | 0.00436
59 | RRIRERPPRLPRPRPRPQTRPRP | 0.0866
60 | RRIRERPPRLPRPRPRPQTTPRP | 0.0104
61 | RRIRERPPRLPRPRPRPQTWPRP | 0.138
62 | RRIRERPPRLPRPRPRPQVPPRP | -0.103
63 | RRIRERPPRLPRPRPRPQVVPRP | -0.42
64 | RRIRERPPRLPRPRPRPQWYPRP | -0.56
65 | RRIRERPPRLPRPRPRPRADPRP | 0.0209
66 | RRIRERPPRLPRPRPRPRAEPRP | -0.116

Row | Sequence | shrunken log2 fold change
67 | RRIRERPPRLPRPRPRPRCPPRP | 0.00202
68 | RRIRERPPRLPRPRPRPRCWPRP | 0.014
69 | RRIRERPPRLPRPRPRPRDAPRP | 0.446
70 | RRIRERPPRLPRPRPRPRDNPRP | -0.321
71 | RRIRERPPRLPRPRPRPRDRPRP | 0.0224
72 | RRIRERPPRLPRPRPRPREHPRP | -0.0329
73 | RRIRERPPRLPRPRPRPRELPRP | 0.569
74 | RRIRERPPRLPRPRPRPRETPRP | 0.0334
75 | RRIRERPPRLPRPRPRPRGCPRP | 0.286
76 | RRIRERPPRLPRPRPRPRGRPRP | 0.358
77 | RRIRERPPRLPRPRPRPRHAPRP | -0.0387
78 | RRIRERPPRLPRPRPRPRHKPRP | -0.0631
79 | RRIRERPPRLPRPRPRPRLHPRP | 0.047
80 | RRIRERPPRLPRPRPRPRLMPRP | -0.103
81 | RRIRERPPRLPRPRPRPRNAPRP | 0.105
82 | RRIRERPPRLPRPRPRPRNGPRP | 0.0197
83 | RRIRERPPRLPRPRPRPRNPPRP | -0.0856
84 | RRIRERPPRLPRPRPRPRNSPRP | -0.639
85 | RRIRERPPRLPRPRPRPRNTPRP | -0.346
86 | RRIRERPPRLPRPRPRPRQPPRP | 0.273
87 | RRIRERPPRLPRPRPRPRQTPRP | 0.253
88 | RRIRERPPRLPRPRPRPRSMPRP | -0.212

Row | Sequence | shrunken log2 fold change
89 | RRIRERPPRLPRPRPRPRSQPRP | -0.341
90 | RRIRERPPRLPRPRPRPRSRPRP | -0.195
91 | RRIRERPPRLPRPRPRPRTGPRP | 0.0617
92 | RRIRERPPRLPRPRPRPRTPPRP | 0.214
93 | RRIRERPPRLPRPRPRPRWKPRP | -0.0289
94 | RRIRERPPRLPRPRPRPRWVPRP | -0.0454
95 | RRIRERPPRLPRPRPRPRYVPRP | -0.0655
96 | RRIRERPPRLPRPRPRPSACPRP | 0.0132
97 | RRIRERPPRLPRPRPRPSAFPRP | -0.089
98 | RRIRERPPRLPRPRPRPSCPPRP | -0.361
99 | RRIRERPPRLPRPRPRPSEGPRP | 0.00843
100 | RRIRERPPRLPRPRPRPSERPRP | -0.239
101 | RRIRERPPRLPRPRPRPSETPRP | -0.428
102 | RRIRERPPRLPRPRPRPSGSPRP | 0.0459
103 | RRIRERPPRLPRPRPRPSHWPRP | -0.292
104 | RRIRERPPRLPRPRPRPSILPRP | -0.623
105 | RRIRERPPRLPRPRPRPSMCPRP | -0.409
106 | RRIRERPPRLPRPRPRPSMHPRP | -0.451
107 | RRIRERPPRLPRPRPRPSMKPRP | -0.607
108 | RRIRERPPRLPRPRPRPSMMPRP | -0.257
109 | RRIRERPPRLPRPRPRPSNRPRP | -0.209

From the supplement of paper PMC9112550, “Optimization of the antimicrobial peptide Bac7 by deep mutational scanning” (BMC Biology, 2022)
